Source: US20260139017A1, “COMPOSITIONS AND METHODS USING REELIN IN ALZHEIMER'S DISEASE” (The General Hospital Corporation, priority 2022, published 2026)
“Also recorded” adds a separate entry of the source.

B1: FcIgG-RAP-CTRH3447R (protein)
chain: MYRMQLLSCIALSLALVTNSAPLERKSSVECPPCPAPPVAGPSVFLFPPKPKDTLMISRTPEVTCVVVDVSHEDPEVQFNWYVDGVEVHNAKTKPREEQFNSTFRVVSVLTVVHQDWLNGKEYKCKVSNKGLPAPIEKTISKTKGQPREPQVYTLPPSREEMTKNQVSLTCLVKGFYPSDIAVEWESNGQPENNYKTTPPMLDSDGSFFLYSKLTVDKSRWQQGNVFSCSVMHEALHNHYTQKSLSLSPGARTGGGGSGGGGSMAPRRVRSFLRGLPALLLLLLFLGPWPAASHGGKYSREKNQPKPSPKRESGEEFRMEKLNQLWEKAQRLHLPPVRLAELHADLKIQERDELAWKKLKLDGLDEDGEKEARLIRNLNVILAKYGLDGKKDARQVTSNSLSGTQEDGLDDPRLEKLWHKAKTSGKFSGEELDKLWREFLHHKEKVHEYNVLLETLSRTEEIHENVISPSDLSDIKGSVLHSRHTELKEKLRSINQGLDRLRRVSHQGYSTEAEFEEPRVIDLWDLAQSANLTDKELEAFREELKHFEAKIEKHNHYQKQLEIAHEKLRHAESVGDGERVSRSREKHALLEGRTKELGYTVKKHLQDLSGRISRARHNELTGGSGGSTRKQNYMMNFSRQHGLRRFYNRRRRSLRRYP
B2: 6xHISCR-50-R5-6-CtermH3447R (protein)
chain: MYRMQLLSCIALSLALVTNSGGHHHHHHGGEQCGAIMHGNAVTFCEPYGPRELITTGLNTTTASVLQFSIGSGSCRFSYSDPSIIVLYAKNNSADWIQLEKIRAPSNVSTIIHILYLPEDAKGENVQFQWKQENLRVGEVYEACWALGSRGGQTNATRFRLWQPYNNGKKEEIWIVDDFIIDGNNVNNPVMLLDTFDFGPREDNWFFYPGGNIGLYCPYSSKGAPEEDSAMVFVSNEVGEHSITTRDLNVNENTIIQFEINVGCSTDSSSADPVRLEFSRDFGATWHLLLPLCYHSSSHVSSLCSTEHHPSSTYYAGTMQGWRREVVHFGKLHLCGSVRFRWYQGFYPAGSQPVTWAIDNVYIGPQCEEMCNGQGSCINGTKCICDPGYSGPTCKISTKNPDFLKDDFEGQLESDRFLLMSGGKPSRKCGILSSGNNLFFNEDGLRMLMTRDLDLSHARFVQFFMRLGCGKGVPDPRSQPVLLQYSLNGGLSWSLLQEFLFSNSSNVGRYIALEIPLKARSGSTRLRWWQPSENGHFYSPWVIDQILIGGNISGNMVLEDDFTTLDSRKWLLHPGGTKMPVCGSTGDALVFIEKASTRYVVSTDVAVNEDSFLQIDFAVSCSVTDSCYAIELEYSVDLGLSWHPLVRDCLPTNVECSRYHLQRILVSDTFNKWTRITLPLPPYTRSQATRFRWHQPAPFDKQQTWAIDNVYIGDGCIDMCSGHGRCIQGNCVCDEQWGGLYCDDPETSLPTQLKDNFNRAPSSQNWLTVNGGKLSTVCGAVASGMALHFSGGCSRLLVTVDLNLTNAEFIQFYFMYGCLITPNNRNQGVLLEYSVNGGITWNLLMEIFYDQYSKPGFVNILLPPDAKEIATRFRWWQPRHDGLDQNDWAIDNVLISGSASTRKQNYMMNFSRQHGLRRFYNRRRRSLRRYP

Experiments:
pDAB1 (Tyr232) = assay: HRECs treated 5 minutes with recombinant mini-RELN, pDAB1 western blot; format: cell-based, human; conditions: for pDAB1 levels: 5 minutes, 4 ug/mL recombinant protein
Method: For in vitro screening of constructs using recombinant mini-RELN on HRECs, the cells were cultured in EBM-2 media enriched with EGM-2 Single Quots (Lonza) at 37° C. and 5% CO2 and experimentally tested at passage 7. 24 h prior experiment, cells were plated on a 6-well plate at 500,000 cells/mL. Two hours before the experiment, the cells were washed with PBS to remove residual growth media and then incubated with a starving media including EBM-2, 1% GlutaMax+0.2% Normicin. Treatments was conducted using recombinant mini RELN constructs obtained from Innovagen and Recombinant Mouse Reelin Protein from R&D systems (3820-MR-025/CF). Each treatment was incubated for 5 minutes at 4 ug/mL concentration and cells were subsequently harvested in lysis buffer was applied constituted of RIPA (Cell signaling), proteases inhibitors (cOmplete™, Mini, EDTA-free Protease Inhibitor Cocktail, Roche), phosphatases inhibitors (PhosSTOP, Roche), 1 μL of proteasome inhibitor MG-132 10 mM, 1% Triton X 100. The lysates were scraped and centrifugated at 15000 rpm for 10 minutes at 4° C. Total protein levels were quantified via BCA assay. For Western Blotting, 3.5 ug protein homogenates were prepared under reducing and denaturing conditions using Laemmli buffer enriched with 10 mM DTT and 5 min boiling. Samples were electrophoretically separated in a 4-20% Gel at 90V and protein transferred to a PVDF membrane using iBlot™ 2 Dry Blotting System. The membrane was blocked using Intercept® (TBS) Blocking Buffer for 2 hours. We detected pDAB1 (Tyr232; 1:1000, rabbit, #3325 Cell signaling), and total protein staining (Licor). Antibodies were diluted using Intercept® (TBS) Blocking Buffer and incubated overnight at 4C under gentle shaking. Prior secondary antibody incubation, membranes were washed 2 times using TBS-T for 10 minutes. As secondary antibodies we used IR Dye 800n CW Goat-anti-Rabbit (925-32211, Licor) diluted 1:10000 in blocking buffer for 1 h at room temperature under gentle shaking. Membranes were washed three times with TBST-T prior IR detection using Odyssey imager. To quantify the results, each band was quantified using ImageJ and data expressed as pDABL:total protein ratio normalized to the control.

pDAB1 [1] = assay: Immunofluorescence of cleared brain sections (Fc tag, pDAB1) after MIND delivery; format: in vivo, mice
Method: 24 or 72 hours after Mini Reelin (225S) or vehicle administration, mice were intracardially perfused with 4% PFA in PBS and brains were harvested and incubated in 4% PFA at 4° C. for 24 hours. Sagittal sections were obtained at 1 mm thickness using a stainless-steel brain matrix. The entorhinal-hippocampal section of each brain was chosen for Clarity using Binaree® Tissue Clearing™ Kit (HRTC-012) following the kit guidelines. Sections were incubated with IgG-Fc tag and pDAB1 primary antibodies for 72 h followed by secondary antibody: Alexa 488 and Alexa 647, and DAPI for 1 h. Subsequently, sections were imaged using confocal SP8 microscope for quantification. […] This is proof of effective drug delivery, target engagement, and targeted RELN signaling activation, in the hippocampal formation.

[2] = Anti human IgG-Fc ELISA of hippocampus after trans-nasal mini-RELN; format: in vivo, mice; conditions: 72 h post injection, vs PBS vehicle
Excerpt: (§1) We used a MIND procure (trans nasal delivery using Minimally Invasive Nasal Depot (MIND), Padmakumar et al., J Control Release. 2021 Mar. 10; 331: 176-186) or intraperitoneal injection to administer miniRELN constructs into mice. MIND leverages the olfactory nerve to bypass the blood brain barrier. […] Using the MIND methodology provides one method of reaching the entorhinal cortex with minimal systemic exposure. […] (Jackson Laboratory) were housed under regular light/night cycle. All procedures were conducted under approved IACUC animal protocols. Prior to incision, the nasal region was shaved and cleaned using betadine and 70% alcohol and mouse subcutaneously injected with buprenorphine HCl and meloxicam (5 mg/kg). The nasal cavity was then opened using a scalped and nasal mucosa exposed using a microdrill. Once the mucosa was exposed, gel dispersion of either PBS or mini-RELN constructs (Innovagen) in 20% Pluronic (Sigma Aldrich) was subcutaneously delivered in the surgically-generated pocket. Mice were injected with meloxicam for 3 days prior euthanasia at day 4 to collect the brain tissue used for post-mortem analysis.

pDAB1 [3] = assay: Trans-nasal (MIND) delivery of mini-RELN in mice, brain pDAB1 western blot; format: in vivo
Excerpt: as §1
Western blotting was performed as follows. 20 ug protein homogenates were prepared under reducing and denaturing conditions using Laemmli buffer enriched with 10 mM DTT and 5 min boiling. Samples were electrophoretically separated in a 4-20% Gel at 90V and protein transferred to a PVDF membrane using iBlot™ 2 Dry Blotting System. The membrane was blocked using Intercept® (TBS) Blocking Buffer for 2 hours. We detected pDAB1 (Tyr232; 1:1000, rabbit, #3325 Cell signaling), and Beta actin (1:5000, mouse, #66009-1-Ig, Proteintech). Antibodies were diluted using Intercept® (TBS) Blocking Buffer and incubated overnight at 4C under gentle shaking. Prior secondary antibody incubation, membranes were washes 2 times using TBS-T for 10 minutes. As secondary antibodies we used IR Dye 800n CW Goat-anti-Rabbit (925-32211, Licor) and IR Dye 680 CW Goat-anti-Mouse (925-68070, Licor) both diluted 1:10000 in blocking buffer for 1 h at room temperature under gentle shaking. Membranes were washed three times with TBS-T prior IR detection using Odyssey imager. To quantify the results, each band was quantified using ImageJ and data expressed as pDAB1:βActin ratio normalized to the control.

total DAB1 = assay: Overexpression of mini-RELN constructs in HRECs, total DAB1 western blot; format: cell-based, human; conditions: 24 h overexpression in HRECs
Method: For in vitro overexpression, the HRECs were cultured in EBM-2 media enriched with EGM-2 Single Quots (Lonza) at 37° C. and 5% CO2 and experimentally tested at passage 7. 24 h prior experiment, cells were plated on a 6-well plate at 500,000 cells/mL. The cell transfection of plasmids was done with Lipofectamine 2000 (5 μL, Life technologies) according to the manufacturer. In detail, one day prior to transfection, cells were seeded to be 70% confluent at moment of transfection. The day of transfection lipofectamine was diluted and incubated for 10 minutes at room temperature, to allow the formation of the lipophilic complex. Subsequently, each plasmid (1 μg, Invivogen) was added to the lipid complex of Lipofectamine and incubated for 10 minutes. We used OPTIMEM media (Gibco) to block the transfection after 5 hours, to allow cells to recover and facilitate replication. Prior 5 h and 24 h post-transfection, cells were imaged using 10× magnification light microscope (Olympus CKX53).
24 h post-transfection, cells were harvested for western blotting analysis. Total protein levels were quantified via BCA assay. […] We detected β-actin (1:5000, mouse, #66009-1-Ig, Proteintech), and total DAB1(1:100, SC-red tube; sc-271136 Dab1 (G-5), Santa Cruz). […] To quantify the results, each band was quantified using ImageJ and data expressed as DAB1:β-actin ratio normalized to the control. […]

[4] = WT male mice, 72 h post-trans-nasal delivery

Row | Molecule | pDAB1 levels (pDAB1 (Tyr232)) | presence of peptide in the brain (Fc immunofluorescence) (pDAB1 [1]; entorhinal-hippocampal section, 24 or 72 hours after MIND) | RELN signaling measured via pDab1 (immunofluorescence) (pDAB1 [1]; wildtype animals, trans nasal, 24 hours, vs pluronic vehicle) | anti human IgG-Fc ELISA optical density in the hippocampus [2] | pDAB1 levels in the entorhinal cortex (pDAB1 [3]; Tau P301S mice, 72 h post-trans nasal delivery, vs PBS) | efficacy at RELN signaling (pDAB1) relative to comparators (pDAB1 (Tyr232); 5 minutes treatment) | total DAB1 levels normalized to β-actin and lipofectamine control (total DAB1) | pDAB1 levels in the hippocampus (pDAB1 [3]; [4]) | pDAB1 levels in the midbrain (pDAB1 [3]; [4])
1 | B1 | increased pDAB1 levels | presence of the miniRELN peptide in the brain | increased levels of RELN signaling | trended to be increased | increased | – | – | – | –
2 | B2 | increased pDAB1 levels | – | – | – | – | more effective than commercially available positive control; also recorded: more effective at triggering signaling compared to full-length RELN WT and full-length RELN COLBOS | the most active | increased | increased
